The source of these data is patent US20180312579A1 (Genentech, published 2018).

Experiment [1] has as its target T1, human RSPO3 with C-terminal HA tag, stably expressed in 293 cells (human, UniProt Q9BXY4 22-272).
T1 construct: Whole open reading frame expressed in HEK-293 cells (high, medium, low); FFPE pellets; also called hRSPO3; RSPO3 Hi
T1 sequence: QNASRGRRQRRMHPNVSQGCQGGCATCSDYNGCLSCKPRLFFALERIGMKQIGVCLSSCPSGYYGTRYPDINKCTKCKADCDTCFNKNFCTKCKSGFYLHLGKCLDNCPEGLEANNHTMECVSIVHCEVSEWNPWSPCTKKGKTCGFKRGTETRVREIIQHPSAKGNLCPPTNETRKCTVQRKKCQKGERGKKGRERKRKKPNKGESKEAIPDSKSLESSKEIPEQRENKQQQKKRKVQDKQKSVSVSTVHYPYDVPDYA
Description: IHC, FFPE 293 cell pellet, RSPO3 Hi; - = not significant staining.

In experiment [2] the target is T2, human RSPO2 with C-terminal HA tag, stably expressed in 293 cells (human, UniProt Q6UXX9 22-243).
T2 construct: Whole open reading frame was expressed from a lentiviral vector in HEK-293 cells sorted for high, medium or low expression; formalin-fixed paraffin-embedded pellets; also called hRSPO2; RSPO2 Hi
Description: IHC, FFPE 293 cell pellet, RSPO2 Med.

For experiment [3], the target named is T2, human RSPO2 with C-terminal HA tag, …. Description: IHC, FFPE 293 cell pellet, RSPO2 Hi.
In experiment [4] the target is T3, FLAG-tagged human RSPO2 (Genentech) (human, UniProt Q6UXX9 22-243).
T3 construct: also called hRSPO2; RSPO2 coated plates; not shown: FLAG tag
Description: competitive binding ELISA: antibody titrated against LGR4-Fc (LGR4-ECD) binding to plate-coated hRSPO2; signal = bound LGR4-Fc, OD(450/630)/OD no antibody. How it is done:
To measure the activity of anti-RSPO antibodies in blocking the binding of LGR4 and -5 ECDs to RSPOs, MaxiSorp 384-well microwell plates (Thermo Scientific Nunc, Roskilde, Denmark) were coated with 25 ul/well of 0.5 μg/ml hRSPO2 or hRSPO3 (Genentech) in 50 mM carbonate buffer, pH 9.6, overnight at 4° C. Plates were blocked with at 80 ul/well of 0.5% bovine serum albumin, 15 parts per million Proclin 300 in phosphate buffered saline (PBS), pH 7.4, for 1 hour. Serially diluted anti-RSPO antibodies ([…] in […] serial dilution plus buffer blank) containing 0.1 μg/ml LGR4-Fc or 0.015 μg/ml LGR5-Fc in assay buffer (0.5% BSA, 0.05% polysorbate 20, 15 parts per million Proclin 300 in PBS) were added to the plates at 25 ul/well. After a 2-hour incubation, LGR4-Fc and LGR5-Fc bound to the plates were detected using peroxidase labeled goat F(ab′)2 anti-human Fc (Jackson ImmunoResearch, West Grove, Pa.). After a 1 hour incubation, the substrate 3,3′,5,5′-tetramethyl benzidine (Moss Inc., Pasadena, Md.) was added to the plates and the reaction was stopped by adding 1 M phosphoric acid. Plates were washed with PBS, pH 7.4, containing 0.05% tween 20, between steps and all the incubation steps following the coating step were performed at room temperature on an orbital shaker. Absorbance was read at 450 nm on a multiskan Ascent reader (Thermo Scientific, Hudson, N.H.).
On the technique in general: An ELISA detects its analyte on a solid surface through an enzyme-linked reagent.

The target of experiment [5] is T4, human RSPO1 with C-terminal HA tag, stably expressed in 293 cells (human, UniProt Q2MKA7 21-263).
T4 construct: also called hRSPO1; RSPO1 Hi
The experiment can be described thus: IHC, FFPE 293 cell pellet, RSPO1 Hi; - = not significant staining.

In experiment [6] the target is T5, human RSPO2 L186P variant (human, UniProt Q6UXX9 22-243).
T5 chain: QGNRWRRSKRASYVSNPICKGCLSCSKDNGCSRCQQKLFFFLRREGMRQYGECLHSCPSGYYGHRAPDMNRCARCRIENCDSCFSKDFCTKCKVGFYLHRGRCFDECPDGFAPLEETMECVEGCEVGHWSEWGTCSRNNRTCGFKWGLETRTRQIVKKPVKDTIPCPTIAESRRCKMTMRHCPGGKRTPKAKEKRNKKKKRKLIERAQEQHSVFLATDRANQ
Description: cell-based or functional assay.

Experiment [7] has as its target T3, FLAG-tagged human RSPO2 (Genentech). Description: competitive binding ELISA: titrated against biotinylated RNF43-Flag (RNF43-ECD) binding to plate-coated hRSPO2; signal = bound RNF43, normalized OD.
In experiment [8] the target is T2, human RSPO2 with C-terminal HA tag, …. The experiment can be described thus: IHC, FFPE 293 cell pellet, RSPO2 Low.
The target of a further experiment is cynomolgus RSPO2 (cynomolgus, UniProt G7PCH9 22-243). The experiment can be described thus: cell-based or functional assay.
The next experiment deals with T6, recombinant human RSPO3 (human, UniProt Q9BXY4 22-272).
T6 sequence: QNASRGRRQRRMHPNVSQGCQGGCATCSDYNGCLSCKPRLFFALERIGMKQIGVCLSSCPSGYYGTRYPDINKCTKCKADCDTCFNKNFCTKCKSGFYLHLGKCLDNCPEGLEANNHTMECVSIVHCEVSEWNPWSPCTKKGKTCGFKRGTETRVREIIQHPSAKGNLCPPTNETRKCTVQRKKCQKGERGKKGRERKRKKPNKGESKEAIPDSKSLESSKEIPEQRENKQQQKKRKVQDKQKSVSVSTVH
Description: cell-based or functional assay.

For another experiment, the target named is mouse RSPO2 (mouse, UniProt Q8BFU0 22-205, limits assumed). Description: cell-based or functional assay.
For another experiment, the target named is T7, cynomolgus RSPO3 (cynomolgus, UniProt A0A2K5UTQ7 22-273).
T7 sequence: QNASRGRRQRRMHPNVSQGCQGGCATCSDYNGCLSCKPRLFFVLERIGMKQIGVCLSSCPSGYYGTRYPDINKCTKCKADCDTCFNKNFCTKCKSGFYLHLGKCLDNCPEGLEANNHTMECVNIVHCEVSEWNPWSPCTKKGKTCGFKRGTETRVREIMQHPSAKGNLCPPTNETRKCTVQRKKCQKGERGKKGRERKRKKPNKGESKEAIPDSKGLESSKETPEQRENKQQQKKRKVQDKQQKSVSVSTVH
The experiment can be described thus: cell-based or functional assay.

The target of the next experiment is recombinant human RSPO2 (human, UniProt Q6UXX9 22-243). The experiment can be described thus: cell-based or functional assay.
In the next experiment the target is T8, mouse RSPO3 (mouse, UniProt Q2TJ95 22-277, limits assumed).
T8 sequence (looked up): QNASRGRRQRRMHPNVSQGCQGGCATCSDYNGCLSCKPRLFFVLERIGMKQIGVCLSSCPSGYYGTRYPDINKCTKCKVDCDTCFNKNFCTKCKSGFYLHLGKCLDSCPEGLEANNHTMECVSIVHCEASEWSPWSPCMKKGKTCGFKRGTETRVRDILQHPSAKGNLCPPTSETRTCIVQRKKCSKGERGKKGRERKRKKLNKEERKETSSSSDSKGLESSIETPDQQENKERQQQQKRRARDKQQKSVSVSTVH
The experiment can be described thus: cell-based or functional assay.

Experiment [9] addresses T9, human RSPO4 with C-terminal HA tag, stably expressed in 293 cells (human, UniProt Q2I0M5 20-234).
T9 construct: also called hRSPO4; RSPO4 Hi
The experiment can be described thus: IHC, FFPE 293 cell pellet, RSPO4 Hi; - = not significant staining.

Experiment [10] has as its target T1, human RSPO3 with C-terminal HA tag, …. The experiment can be described thus: IHC, FFPE 293 cell pellet, RSPO3 Hi.
In experiment [11] the target is T10, FLAG-tagged human RSPO3 (Genentech) (human, UniProt Q9BXY4 22-272).
T10 construct: also called hRSPO3; RSPO3 coated plates; not shown: FLAG tag
T10 sequence: T6 sequence
The experiment can be described thus: competitive binding ELISA: antibody titrated against LGR4-Fc (LGR4-ECD) binding to plate-coated hRSPO3; signal = bound LGR4-Fc, OD(450/630)/OD no antibody. The procedure, abridged: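 Plates coated with 0.5 μg/ml hRSPO2 or hRSPO3 at pH 9.6 were incubated 2 h at room temperature with antibody (0.078-10 […] dilutions) plus 0.1 μg/ml LGR4-Fc. Bound LGR4-Fc was detected by HRP anti-human Fc and TMB, with absorbance read at 450 nm.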

Experiment [12] concerns the target T1, human RSPO3 with C-terminal HA tag, …. The experiment can be described thus: IHC, FFPE 293 cell pellet, RSPO3 Low.
Experiment [13] has the same target. The experiment can be described thus: IHC, FFPE 293 cell pellet, RSPO3 Med.
For experiment [14], the target named is T2, human RSPO2 with C-terminal HA tag, …. Description: IHC, FFPE 293 cell pellet, RSPO2 Hi; - = not significant staining.
Target sequence in this assay (Q6UXX9 other isoform, or with tags, fused parts or gaps): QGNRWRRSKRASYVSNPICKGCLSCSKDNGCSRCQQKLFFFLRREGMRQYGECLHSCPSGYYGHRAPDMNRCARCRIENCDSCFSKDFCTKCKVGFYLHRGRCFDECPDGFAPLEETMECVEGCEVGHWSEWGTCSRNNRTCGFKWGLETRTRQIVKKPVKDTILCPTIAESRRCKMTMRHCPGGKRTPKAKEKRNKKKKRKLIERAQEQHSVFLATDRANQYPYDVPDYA
The target of experiment [15] is T10, FLAG-tagged human RSPO3 (Genentech). The experiment can be described thus: competitive binding ELISA: titrated against biotinylated RNF43-Flag (RNF43-ECD) binding to plate-coated hRSPO3; signal = bound RNF43, normalized OD.

Sequence of mouse RSPO2 (Q8BFU0 22-205 limits assumed): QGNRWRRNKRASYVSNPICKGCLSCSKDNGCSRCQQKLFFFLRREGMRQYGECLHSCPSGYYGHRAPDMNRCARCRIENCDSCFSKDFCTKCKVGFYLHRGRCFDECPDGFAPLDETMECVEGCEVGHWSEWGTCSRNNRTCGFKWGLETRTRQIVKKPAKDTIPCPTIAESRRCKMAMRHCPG
T9 sequence (Q2I0M5 other isoform, or with tags, fused parts or gaps limits assumed): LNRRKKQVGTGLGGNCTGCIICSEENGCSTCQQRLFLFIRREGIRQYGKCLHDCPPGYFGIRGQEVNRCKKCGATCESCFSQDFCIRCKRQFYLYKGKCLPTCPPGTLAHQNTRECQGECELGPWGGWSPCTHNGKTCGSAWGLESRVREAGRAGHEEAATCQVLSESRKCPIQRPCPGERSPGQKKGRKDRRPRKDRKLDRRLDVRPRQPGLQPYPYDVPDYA
T4 sequence (Q2MKA7 other isoform, or with tags, fused parts or gaps limits assumed): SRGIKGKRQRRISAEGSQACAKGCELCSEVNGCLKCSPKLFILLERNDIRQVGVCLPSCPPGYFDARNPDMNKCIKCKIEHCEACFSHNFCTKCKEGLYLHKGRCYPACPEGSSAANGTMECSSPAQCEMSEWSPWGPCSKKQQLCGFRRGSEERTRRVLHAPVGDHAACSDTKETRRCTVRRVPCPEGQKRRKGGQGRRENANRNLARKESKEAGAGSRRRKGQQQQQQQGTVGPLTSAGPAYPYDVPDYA

B1: 1A1 (antibody, V domains shown)
VH: EVQLVESGGGLVKPEGSLKLSCVASGFTFSDYFMSWVRQAPGQGLEWVAHIYTKTYNYATYYSGSVKGRFSISRDDSRNMVYLQMNNLRTEDTATYYCTTDEDWYFDFWGQGTQVTVSS
VL: QPVLTQSPSVSASLGASVKLTCTLSSQHSTNYIEWYQQHPDKSPKFLMQVRDGSHSKGDGTPDRFSGSSSGAHRYLSISNLQLEDEAIYYCGLSDVSLYLFGSGTQLTLL
notes: also called monoclonal antibody 1A1
For B1, the binding result in experiment [1], in [5] and in experiment [9] was “no binding” throughout. Besides, the “percentage of cells staining” value in experiment [2] amounted to 40%; in [3] it was 80%; in [8], 30%. Also, the “EC50 (read off the curve)” value in experiment [4] was about 0.07 µg/mL. Further, in experiment [6], the “IC50 (read off the curve), WNT reporter RLU stimulated by 38 pM rhRSPO2 L186P” value was about 0.6 pM. In addition, the “IC50 (read off the curve)” value in [7] was about 0.1 µg/mL. The “IC50, WNT luciferase reporter, bivalent antibody” value with cynomolgus RSPO2 was 0.0005 nM; with recombinant human RSPO3 it was over 500 nM; in the experiment with mouse RSPO2 it was 0.0022 nM; in the experiment with cynomolgus RSPO3 it was over 500 nM; in the experiment with recombinant human RSPO2, 0.0004 nM; in the experiment with mouse RSPO3, over 500 nM.

B2: 5E11 (antibody, V domains shown)
VH: QVQLKQSGPGLVQPSQSLSITCTVSGFSLSSYAVHWVRQSPGEGLEWLGVIWSGGSTDYNAAFISRMSITKDNSKSQVFFKMNSLQADDTAIYFCARNDGYYYFDYWGQGTTLTVSS
VL: DIVMTQSTSSLSASLGDRVTISCRASQDISNYLNWYQQKPDGTVKLLIYYTSRLHSGVPSRFSGSGSGTDYSLTISNLEKEDVATYFCQHGDTLPPTFGGGTKLEIK
notes: also called monoclonal antibody 5E11
On to B2, for which the “percentage of cells staining” value was determined as 90% in [10], 20% in experiment [12] and 80% in [13]. Further, the results for the “IC50 (read off the curve)” value in experiment [11] and in experiment [15] were about 0.1 µg/mL and about 0.08 µg/mL, respectively. The binding result in experiment [14], in experiment [5] and in experiment [9] was “no binding” in each case. The “IC50, WNT luciferase reporter, bivalent antibody” value with cynomolgus RSPO2 was over 500 nM; with recombinant human RSPO3, 0.09 nM; with mouse RSPO2, over 500 nM; with cynomolgus RSPO3 it was 0.31 nM; in the experiment with recombinant human RSPO2, over 500 nM; with mouse RSPO3 it was 0.5 nM.

In general, EC50 (read off the curve) refers to the midpoint of the concentration-response curve. High values mean a need for much substance, low ones an effect from little substance.
